Test results from the RNAGym collection of RNA variant scans (doi:10.7554/elife.80360).

B1: Hammerhead Ribozyme (parent)
chain: ACCGGAUGUGCUUUCCGGUCUGAUGAGUCCGUGAGGACGAAACAG

Variants of: B1
Assay: self-cleavage, relative activity (ratio to wild type); higher = more cleavage; co-transcriptional

First: A34U C38G
Second: A34U C38U
The self-cleavage of the first is lower: 0.403 for the first, 0.799 for the second.

Compared with A34U C43A, A34U C43G is lower in self-cleavage: 0.393 for the first, 0.315 for the second.

First: A34U C43U
Second: A34U G35A
The self-cleavage of the first is lower: 0.304 for the first, 0.638 for the second.

Compared with A34U G35C, A34U G35U is lower in self-cleavage: 0.631 for the first, 0.584 for the second.

Compared with A34U G36A, A34U G36C is lower in self-cleavage: 0.437 for the first, 0.406 for the second.

First: A34U G36U
Second: A34U G39A
The self-cleavage of the first is higher: 0.565 for the first, 0.288 for the second.

First: A34U G39C
Second: A34U G39U
The self-cleavage of the first is lower: 0.351 for the first, 0.356 for the second.

Compared with A34U G45A, A34U G45C is higher in self-cleavage: 0.477 for the first, 0.533 for the second.

Compared with A34U G45U, G35A is higher in self-cleavage: 0.625 for the first, 0.798 for the second.

Going from G35A A37C to G35A A37G, the self-cleavage rises from 0.364 to 0.58.

Going from G35A A37U to G35A A40C, the self-cleavage rises from 0.414 to 0.435.

Compared with G35A A40G, G35A A40U is lower in self-cleavage: 0.37 for the first, 0.317 for the second.

Going from G35A A41C to G35A A41G, the self-cleavage rises from 0.32 to 0.328.

Going from G35A A41U to G35A A42C, the self-cleavage rises from 0.278 to 0.354.

First: G35A A42G
Second: G35A A42U
The self-cleavage of the first is lower: 0.252 for the first, 0.29 for the second.

Compared with G35A A44C, G35A A44G is higher in self-cleavage: 0.42 for the first, 0.837 for the second.

First: G35A A44U
Second: G35A C38A
The self-cleavage of the first is lower: 0.46 for the first, 0.482 for the second.

Going from G35A C38G to G35A C38U, the self-cleavage rises from 0.387 to 0.587.

Compared with G35A C43A, G35A C43G is higher in self-cleavage: 0.322 for the first, 0.353 for the second.

Going from G35A C43U to G35A G36A, the self-cleavage rises from 0.401 to 0.508.

First: G35A G36C
Second: G35A G36U
The self-cleavage of the first is higher: 0.484 for the first, 0.427 for the second.

Going from G35A G39A to G35A G39C, the self-cleavage rises from 0.312 to 0.346.

Going from G35A G39U to G35A G45A, the self-cleavage rises from 0.328 to 0.452.

Compared with G35A G45C, G35A G45U is higher in self-cleavage: 0.437 for the first, 0.471 for the second.

Compared with G35C, G35C A37C is lower in self-cleavage: 0.791 for the first, 0.504 for the second.

First: G35C A37G
Second: G35C A37U
The self-cleavage of the first is higher: 0.563 for the first, 0.517 for the second.

First: G35C A40C
Second: G35C A40G
The self-cleavage of the first is higher: 0.466 for the first, 0.28 for the second.

Compared with G35C A40U, G35C A41C is higher in self-cleavage: 0.296 for the first, 0.337 for the second.

Going from G35C A41G to G35C A41U, the self-cleavage rises from 0.329 to 0.356.

First: G35C A42C
Second: G35C A42G
The self-cleavage of the first is higher: 0.283 for the first, 0.26 for the second.

Compared with G35C A42U, G35C A44C is higher in self-cleavage: 0.324 for the first, 0.42 for the second.

First: G35C A44G
Second: G35C A44U
The self-cleavage of the first is higher: 0.692 for the first, 0.465 for the second.

First: G35C C38A
Second: G35C C38G
The self-cleavage of the first is higher: 0.398 for the first, 0.376 for the second.

Compared with G35C C38U, G35C C43A is lower in self-cleavage: 0.67 for the first, 0.352 for the second.

Going from G35C C43G to G35C C43U, the self-cleavage rises from 0.325 to 0.387.

First: G35C G36A
Second: G35C G36C
The self-cleavage of the first is higher: 0.504 for the first, 0.425 for the second.

First: G35C G36U
Second: G35C G39A
The self-cleavage of the first is higher: 0.401 for the first, 0.31 for the second.

Going from G35C G39C to G35C G39U, the self-cleavage falls from 0.365 to 0.307.

Compared with G35C G45A, G35C G45C is higher in self-cleavage: 0.385 for the first, 0.395 for the second.

Going from G35C G45U to G35U, the self-cleavage rises from 0.498 to 0.817.

Going from G35U A37C to G35U A37G, the self-cleavage rises from 0.548 to 0.679.

Variant G35U A37U has a self-cleavage of 0.52.
